Measurements from article PMC3702667 (Nature structural & molecular biology, 2013).
Blank lines part the entries; values can stand above or below the binder they belong to.

B1: GST–tagged Rpb1_(1168–1302) (domain or fragment)
chain: not shown
B2: untagged recombinant Rpb1_(1168–1302) (domain or fragment)
chain: not shown

Tests used:
Experiment in all cases: pull-down
RECQL5_(1–620) = RECQL5_(1–620) (human, UniProt O94762 1-620)
GST–fused RECQL5_(1–620) = GST–fused RECQL5_(1–620) (human, UniProt O94762 1-620)
[1] = molecular target: B1
[2] = molecular target: B2

Binder: B1
binding result (RECQL5_(1–620)): binds

Binder: B2
binding result (GST–fused RECQL5_(1–620)): binds

Continued, values first:

binding result [1]: binds
B3: RECQL5 IRI domain (residues 490–620) (domain or fragment)
chain: GSGDEGRDEAHKREWNLFYQKQMQLRKGKDPKIEEFVPPDENCPLKEASSRRIPRLTVKAREHCLRLLEEALSSNRQSTRTADEADLRAKAVELEHETFRNAKVANLYKASVLKKVADIHRASKDGQPYDM

binding result [2]: binds
B4: GST–RECQL5_(490–620) (domain or fragment)
chain: GSGDEGRDEAHKREWNLFYQKQMQLRKGKDPKIEEFVPPDENCPLKEASSRRIPRLTVKAREHCLRLLEEALSSNRQSTRTADEADLRAKAVELEHETFRNAKVANLYKASVLKKVADIHRASKDGQPYDM
